Measured values from PMC9482650, “Quantitative fragmentomics allow affinity mapping of interactomes” (Nature Communications, 2022).

Tests used:
Assay in all cases: holdup assay
Design in all cases: key: below the threshold = too weak to quantify, mostly under pKd 3.1 to 4
ARHGAP21, Q5T5U3 = target: T1, ARHGAP21, Q5T5U3
T1 sequence (Q5T5U3 45-169, limits assumed, looked up): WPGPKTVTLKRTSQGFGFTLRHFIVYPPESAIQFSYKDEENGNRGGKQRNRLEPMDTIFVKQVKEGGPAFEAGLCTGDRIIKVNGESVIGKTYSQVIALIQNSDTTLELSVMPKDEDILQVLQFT

DLG4_1, P78352 = target: DLG4_1, P78352
FRMPD1, Q5SYB0 = target: T2, FRMPD1, Q5SYB0
T2 sequence (Q5SYB0 52-145, limits assumed, looked up): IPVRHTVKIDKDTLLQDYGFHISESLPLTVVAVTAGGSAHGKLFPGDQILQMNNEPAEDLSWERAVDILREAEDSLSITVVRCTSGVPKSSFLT

FRMPD4, Q14CM0 = target: FRMPD4, Q14CM0
GRASP, Q7Z6J2 = target: GRASP, Q7Z6J2
GRID2IP_1, A4D2P6 = target: GRID2IP_1, A4D2P6
GRIP1_5, Q9Y3R0 = target: T3, GRIP1_5, Q9Y3R0
T3 sequence (Q9Y3R0 568-668, limits assumed, looked up): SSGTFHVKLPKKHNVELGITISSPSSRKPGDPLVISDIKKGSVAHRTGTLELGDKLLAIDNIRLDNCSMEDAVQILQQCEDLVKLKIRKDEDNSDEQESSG

GRIP1_7, Q9Y3R0 = target: T4, GRIP1_7, Q9Y3R0
T4 sequence (Q9Y3R0 999-1096, limits assumed, looked up): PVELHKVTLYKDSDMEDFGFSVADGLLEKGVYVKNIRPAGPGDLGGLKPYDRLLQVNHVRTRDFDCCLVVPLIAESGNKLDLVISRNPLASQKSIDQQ

GRIP2_3, Q9C0E4 = target: GRIP2_3, Q9C0E4
GRIP2_6, Q9C0E4 = target: GRIP2_6, Q9C0E4
HTRA1, Q92743 = target: HTRA1, Q92743
Inadl_3, Q8NI35 = target: Inadl_3, Q8NI35
Inadl_4, Q8NI35 = target: Inadl_4, Q8NI35
LIN7A, O14910 = target: T5, LIN7A, O14910
T5 sequence (O14910 103-200, limits assumed, looked up): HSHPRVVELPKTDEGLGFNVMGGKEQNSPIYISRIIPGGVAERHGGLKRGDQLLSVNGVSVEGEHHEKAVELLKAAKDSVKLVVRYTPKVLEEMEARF

MAGI1_1, Q96QZ7 = target: MAGI1_1, Q96QZ7
MAGI1_2, Q96QZ7 = target: MAGI1_2, Q96QZ7
MAGI2_3, Q86UL8 = target: MAGI2_3, Q86UL8
MAGI2_5, Q86UL8 = target: MAGI2_5, Q86UL8
MAST2, Q6P0Q8 = target: MAST2, Q6P0Q8
MPP6, Q9NZW5 = target: T6, MPP6, Q9NZW5
T6 sequence (Q9NZW5 125-219, limits assumed, looked up): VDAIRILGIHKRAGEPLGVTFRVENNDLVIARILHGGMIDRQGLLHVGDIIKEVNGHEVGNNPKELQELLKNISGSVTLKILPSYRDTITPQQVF

MPP7, Q5T2T1 = target: T7, MPP7, Q5T2T1
T7 sequence (Q5T2T1 134-230, limits assumed, looked up): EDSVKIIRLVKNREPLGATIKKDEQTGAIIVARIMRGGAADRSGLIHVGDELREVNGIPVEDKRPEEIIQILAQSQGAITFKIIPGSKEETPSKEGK

NHERF4_2, Q86UT5 = target: NHERF4_2, Q86UT5
PCLO, Q9Y6V0 = target: T8, PCLO, Q9Y6V0
T8 sequence (Q9Y6V0 4491-4600, limits assumed, looked up): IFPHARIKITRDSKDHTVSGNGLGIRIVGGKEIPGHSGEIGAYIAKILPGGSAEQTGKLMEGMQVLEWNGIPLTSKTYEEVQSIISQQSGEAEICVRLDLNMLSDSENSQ

PDZRN3_1, Q9UPQ7 = target: T9, PDZRN3_1, Q9UPQ7
T9 sequence (Q9UPQ7 244-349, limits assumed, looked up): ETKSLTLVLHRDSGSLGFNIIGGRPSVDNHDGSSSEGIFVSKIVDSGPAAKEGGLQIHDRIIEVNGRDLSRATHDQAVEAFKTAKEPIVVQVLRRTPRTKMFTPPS

PTPN13_1, Q12923 = target: T10, PTPN13_1, Q12923
T10 sequence (Q12923 1088-1188, limits assumed, looked up): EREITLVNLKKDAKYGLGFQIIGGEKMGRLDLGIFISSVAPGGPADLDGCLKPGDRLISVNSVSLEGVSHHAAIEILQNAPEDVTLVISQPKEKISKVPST

SCRIB_2, Q14160 = target: SCRIB_2, Q14160
SYNJ2BP, P57105 = target: T11, SYNJ2BP, P57105
T11 sequence (P57105 8-110, limits assumed, looked up): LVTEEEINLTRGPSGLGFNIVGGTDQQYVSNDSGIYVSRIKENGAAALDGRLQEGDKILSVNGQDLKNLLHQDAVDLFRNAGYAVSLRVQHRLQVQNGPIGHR

[1] = plain residues with an end cap or a label only (N-terminal biotin on a linker: ado-ado)
[2] = modified: phospho on T at position -2 from the C-terminal residue

NHERF4_2, Q86UT5, sequence (Q86UT5 220-308): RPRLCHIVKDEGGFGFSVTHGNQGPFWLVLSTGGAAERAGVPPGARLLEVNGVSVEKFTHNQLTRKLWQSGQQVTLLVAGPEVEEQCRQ
Inadl_3, Q8NI35, sequence (Q8NI35 359-469): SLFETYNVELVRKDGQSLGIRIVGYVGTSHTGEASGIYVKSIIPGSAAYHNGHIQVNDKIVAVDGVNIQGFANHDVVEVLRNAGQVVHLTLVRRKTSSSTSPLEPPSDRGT
Inadl_4, Q8NI35, sequence (Q8NI35 547-651): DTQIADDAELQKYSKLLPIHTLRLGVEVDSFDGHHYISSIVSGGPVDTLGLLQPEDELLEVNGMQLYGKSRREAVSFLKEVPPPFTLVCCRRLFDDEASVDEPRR
MAST2, Q6P0Q8, sequence (Q6P0Q8 1099-1202): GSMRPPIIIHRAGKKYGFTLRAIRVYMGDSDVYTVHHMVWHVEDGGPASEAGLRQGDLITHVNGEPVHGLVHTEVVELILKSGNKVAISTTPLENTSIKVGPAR
GRIP2_6, Q9C0E4, sequence (Q9C0E4 648-740): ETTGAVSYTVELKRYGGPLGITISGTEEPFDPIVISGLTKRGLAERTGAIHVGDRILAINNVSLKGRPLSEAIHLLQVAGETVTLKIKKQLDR
GRASP, Q7Z6J2, sequence (Q7Z6J2 96-193): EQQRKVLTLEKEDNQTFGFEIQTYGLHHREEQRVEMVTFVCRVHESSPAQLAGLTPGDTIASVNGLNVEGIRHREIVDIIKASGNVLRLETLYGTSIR
MAGI2_3, Q86UL8, sequence (Q86UL8 600-682): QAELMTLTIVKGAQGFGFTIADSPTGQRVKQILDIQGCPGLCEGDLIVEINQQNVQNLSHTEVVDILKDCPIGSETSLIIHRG
DLG4_1, P78352, sequence (P78352 62-152): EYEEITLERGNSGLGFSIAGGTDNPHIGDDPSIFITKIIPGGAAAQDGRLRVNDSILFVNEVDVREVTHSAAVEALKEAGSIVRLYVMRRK
MAGI1_2, Q96QZ7, sequence (Q96QZ7 456-580): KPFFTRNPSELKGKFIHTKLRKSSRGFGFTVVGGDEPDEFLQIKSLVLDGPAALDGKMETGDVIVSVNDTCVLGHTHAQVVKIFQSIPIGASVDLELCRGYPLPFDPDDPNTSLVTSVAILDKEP
GRID2IP_1, A4D2P6, sequence (A4D2P6 1-87): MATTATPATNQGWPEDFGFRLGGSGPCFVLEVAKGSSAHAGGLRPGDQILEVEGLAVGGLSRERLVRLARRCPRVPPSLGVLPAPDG
SCRIB_2, Q14160, sequence (Q14160 857-960): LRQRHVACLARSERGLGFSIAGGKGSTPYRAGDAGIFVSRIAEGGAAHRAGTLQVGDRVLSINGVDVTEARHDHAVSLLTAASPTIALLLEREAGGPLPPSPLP
HTRA1, Q92743, sequence (Q92743 360-477): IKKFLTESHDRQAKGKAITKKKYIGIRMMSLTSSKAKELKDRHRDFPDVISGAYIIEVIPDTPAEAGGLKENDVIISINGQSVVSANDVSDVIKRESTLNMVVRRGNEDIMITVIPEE
MAGI2_5, Q86UL8, sequence (Q86UL8 915-1017): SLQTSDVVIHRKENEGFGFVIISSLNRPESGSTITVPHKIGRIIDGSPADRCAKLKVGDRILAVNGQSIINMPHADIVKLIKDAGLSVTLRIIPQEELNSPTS
GRIP2_3, Q9C0E4, sequence (Q9C0E4 238-339): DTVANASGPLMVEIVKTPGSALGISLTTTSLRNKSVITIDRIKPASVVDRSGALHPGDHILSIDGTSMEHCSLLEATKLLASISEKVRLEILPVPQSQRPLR
FRMPD4, Q14CM0, sequence (Q14CM0 67-160): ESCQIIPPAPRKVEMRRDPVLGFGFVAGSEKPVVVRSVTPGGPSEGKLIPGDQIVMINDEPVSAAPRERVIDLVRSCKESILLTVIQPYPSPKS
MAGI1_1, Q96QZ7, sequence (Q96QZ7 1-106): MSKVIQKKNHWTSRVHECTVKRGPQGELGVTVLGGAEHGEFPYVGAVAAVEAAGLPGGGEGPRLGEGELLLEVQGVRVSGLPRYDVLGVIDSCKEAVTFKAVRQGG

## YNNCLEILRV [DCAF7, P61962]
ARHGAP21, Q5T5U3; [1]
  pKd: below the threshold
DLG4_1, P78352; [1]
  pKd: below the threshold
FRMPD1, Q5SYB0; [1]
  pKd: below the threshold
FRMPD4, Q14CM0; [1]
  pKd: below the threshold
GRASP, Q7Z6J2; [1]
  pKd: 3.9
GRID2IP_1, A4D2P6; [1]
  pKd: below the threshold
GRIP1_5, Q9Y3R0; [1]
  pKd: below the threshold
GRIP1_7, Q9Y3R0; [1]
  pKd: below the threshold
GRIP2_3, Q9C0E4; [1]
  pKd: below the threshold
GRIP2_6, Q9C0E4; [1]
  pKd: below the threshold
HTRA1, Q92743; [1]
  pKd: 5.22
Inadl_3, Q8NI35; [1]
  pKd: below the threshold
Inadl_4, Q8NI35; [1]
  pKd: below the threshold
LIN7A, O14910; [1]
  pKd: below the threshold
MAGI1_1, Q96QZ7; [1]
  pKd: below the threshold
MAGI1_2, Q96QZ7; [1]
  pKd: below the threshold
MAGI2_3, Q86UL8; [1]
  pKd: below the threshold
MAGI2_5, Q86UL8; [1]
  pKd: below the threshold
MAST2, Q6P0Q8; [1]
  pKd: 4.53
MPP6, Q9NZW5; [1]
  pKd: below the threshold
MPP7, Q5T2T1; [1]
  pKd: below the threshold
NHERF4_2, Q86UT5; [1]
  pKd: below the threshold
PCLO, Q9Y6V0; [1]
  pKd: below the threshold
PDZRN3_1, Q9UPQ7; [1]
  pKd: below the threshold
PTPN13_1, Q12923; [1]
  pKd: below the threshold
SCRIB_2, Q14160; [1]
  pKd: below the threshold
SYNJ2BP, P57105; [1]
  pKd: below the threshold

## RRRESYSTTV [EVI5, O60447]
ARHGAP21, Q5T5U3; [1]
  pKd: 3.82
DLG4_1, P78352; [1]
  pKd: 5.79
FRMPD1, Q5SYB0; [1]
  pKd: below the threshold
FRMPD4, Q14CM0; [1]
  pKd: 3.79
GRASP, Q7Z6J2; [1]
  pKd: 4.55
GRID2IP_1, A4D2P6; [1]
  pKd: below the threshold
GRIP1_5, Q9Y3R0; [1]
  pKd: below the threshold
GRIP1_7, Q9Y3R0; [1]
  pKd: below the threshold
GRIP2_3, Q9C0E4; [1]
  pKd: below the threshold
GRIP2_6, Q9C0E4; [1]
  pKd: 4.61
HTRA1, Q92743; [1]
  pKd: 4.45
Inadl_3, Q8NI35; [1]
  pKd: 3.99
Inadl_4, Q8NI35; [1]
  pKd: below the threshold
LIN7A, O14910; [1]
  pKd: below the threshold
MAGI1_1, Q96QZ7; [1]
  pKd: below the threshold
MAGI1_2, Q96QZ7; [1]
  pKd: 4.78
MAGI2_3, Q86UL8; [1]
  pKd: below the threshold
MAGI2_5, Q86UL8; [1]
  pKd: 4.54
MAST2, Q6P0Q8; [1]
  pKd: 5.66
MPP6, Q9NZW5; [1]
  pKd: below the threshold
MPP7, Q5T2T1; [1]
  pKd: below the threshold
NHERF4_2, Q86UT5; [1]
  pKd: below the threshold
PCLO, Q9Y6V0; [1]
  pKd: below the threshold
PDZRN3_1, Q9UPQ7; [1]
  pKd: 3.83
PTPN13_1, Q12923; [1]
  pKd: below the threshold
SCRIB_2, Q14160; [1]
  pKd: below the threshold
SYNJ2BP, P57105; [1]
  pKd: 4.89

## SKPTRRETEV [HPV35-E6_-2P, P27228]
ARHGAP21, Q5T5U3; [2]
  pKd: 4.08
DLG4_1, P78352; [2]
  pKd: below the threshold
FRMPD1, Q5SYB0; [2]
  pKd: below the threshold
FRMPD4, Q14CM0; [2]
  pKd: below the threshold
GRASP, Q7Z6J2; [2]
  pKd: below the threshold
GRID2IP_1, A4D2P6; [2]
  pKd: below the threshold
GRIP1_5, Q9Y3R0; [2]
  pKd: below the threshold
GRIP1_7, Q9Y3R0; [2]
  pKd: below the threshold
GRIP2_3, Q9C0E4; [2]
  pKd: below the threshold
GRIP2_6, Q9C0E4; [2]
  pKd: below the threshold
HTRA1, Q92743; [2]
  pKd: below the threshold
Inadl_3, Q8NI35; [2]
  pKd: below the threshold
Inadl_4, Q8NI35; [2]
  pKd: below the threshold
LIN7A, O14910; [2]
  pKd: below the threshold
MAGI1_1, Q96QZ7; [2]
  pKd: below the threshold
MAGI1_2, Q96QZ7; [2]
  pKd: below the threshold
MAGI2_3, Q86UL8; [2]
  pKd: below the threshold
MAGI2_5, Q86UL8; [2]
  pKd: below the threshold
MAST2, Q6P0Q8; [2]
  pKd: below the threshold
MPP6, Q9NZW5; [2]
  pKd: 3.78
MPP7, Q5T2T1; [2]
  pKd: below the threshold
NHERF4_2, Q86UT5; [2]
  pKd: below the threshold
PCLO, Q9Y6V0; [2]
  pKd: below the threshold
PDZRN3_1, Q9UPQ7; [2]
  pKd: below the threshold
PTPN13_1, Q12923; [2]
  pKd: below the threshold
SCRIB_2, Q14160; [2]
  pKd: below the threshold
SYNJ2BP, P57105; [2]
  pKd: below the threshold

## RRLPGKETMA [GRIK2, Q13002]
ARHGAP21, Q5T5U3; [1]
  pKd: below the threshold
DLG4_1, P78352; [1]
  pKd: below the threshold
FRMPD1, Q5SYB0; [1]
  pKd: below the threshold
FRMPD4, Q14CM0; [1]
  pKd: below the threshold
GRASP, Q7Z6J2; [1]
  pKd: below the threshold
GRID2IP_1, A4D2P6; [1]
  pKd: below the threshold
GRIP1_5, Q9Y3R0; [1]
  pKd: below the threshold
GRIP1_7, Q9Y3R0; [1]
  pKd: below the threshold
GRIP2_3, Q9C0E4; [1]
  pKd: below the threshold
GRIP2_6, Q9C0E4; [1]
  pKd: below the threshold
HTRA1, Q92743; [1]
  pKd: below the threshold
Inadl_3, Q8NI35; [1]
  pKd: below the threshold
Inadl_4, Q8NI35; [1]
  pKd: below the threshold
LIN7A, O14910; [1]
  pKd: below the threshold
MAGI1_1, Q96QZ7; [1]
  pKd: below the threshold
MAGI1_2, Q96QZ7; [1]
  pKd: below the threshold
MAGI2_3, Q86UL8; [1]
  pKd: below the threshold
MAGI2_5, Q86UL8; [1]
  pKd: below the threshold
MAST2, Q6P0Q8; [1]
  pKd: below the threshold
MPP6, Q9NZW5; [1]
  pKd: below the threshold
MPP7, Q5T2T1; [1]
  pKd: below the threshold
NHERF4_2, Q86UT5; [1]
  pKd: below the threshold
PCLO, Q9Y6V0; [1]
  pKd: below the threshold
PDZRN3_1, Q9UPQ7; [1]
  pKd: below the threshold
PTPN13_1, Q12923; [1]
  pKd: below the threshold
SCRIB_2, Q14160; [1]
  pKd: below the threshold
SYNJ2BP, P57105; [1]
  pKd: below the threshold

## LRSPRTPSEV [OR10G3, Q8NGC4]
ARHGAP21, Q5T5U3; [1]
  pKd: 3.97
DLG4_1, P78352; [1]
  pKd: 3.49
FRMPD1, Q5SYB0; [1]
  pKd: below the threshold
FRMPD4, Q14CM0; [1]
  pKd: below the threshold
GRASP, Q7Z6J2; [1]
  pKd: below the threshold
GRID2IP_1, A4D2P6; [1]
  pKd: below the threshold
GRIP1_5, Q9Y3R0; [1]
  pKd: below the threshold
GRIP1_7, Q9Y3R0; [1]
  pKd: below the threshold
GRIP2_3, Q9C0E4; [1]
  pKd: below the threshold
GRIP2_6, Q9C0E4; [1]
  pKd: below the threshold
HTRA1, Q92743; [1]
  pKd: 3.58
Inadl_3, Q8NI35; [1]
  pKd: below the threshold
Inadl_4, Q8NI35; [1]
  pKd: below the threshold
LIN7A, O14910; [1]
  pKd: below the threshold
MAGI1_1, Q96QZ7; [1]
  pKd: below the threshold
MAGI1_2, Q96QZ7; [1]
  pKd: 3.92
MAGI2_3, Q86UL8; [1]
  pKd: 3.55
MAGI2_5, Q86UL8; [1]
  pKd: below the threshold
MAST2, Q6P0Q8; [1]
  pKd: 3.61
MPP6, Q9NZW5; [1]
  pKd: below the threshold
MPP7, Q5T2T1; [1]
  pKd: below the threshold
NHERF4_2, Q86UT5; [1]
  pKd: below the threshold
PCLO, Q9Y6V0; [1]
  pKd: below the threshold
PDZRN3_1, Q9UPQ7; [1]
  pKd: below the threshold
PTPN13_1, Q12923; [1]
  pKd: 3.71
SCRIB_2, Q14160; [1]
  pKd: 3.6
SYNJ2BP, P57105; [1]
  pKd: 4.61
